Paper PMC6175577 (2018)
Changes are numbered by the printed parent chain. Like-named read-outs stand apart in the source and are kept apart here. Where no end group is shown, it is not given here. [ ]: non-standard residue; d: D form. pT = C[C@@H](OP(=O)(O)O)[C@H](N)C(=O)O; pS = N[C@@H](COP(=O)(O)O)C(=O)O

Tests used:
Test in all cases: FP
TOPBP1-BRCT4,5 segment = molecular target: T1, TOPBP1-BRCT4,5 segment ( (human and chicken TOPBP1 …))
T1 chain: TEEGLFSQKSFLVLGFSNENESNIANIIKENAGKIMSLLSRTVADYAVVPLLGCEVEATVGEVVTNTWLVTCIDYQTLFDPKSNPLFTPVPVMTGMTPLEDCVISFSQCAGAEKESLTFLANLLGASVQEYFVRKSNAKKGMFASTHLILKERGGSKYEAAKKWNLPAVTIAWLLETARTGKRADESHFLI

[1] = molecular target: T2, TOPBP1-BRCT0,1,2 segment, wild type (recombinant, fluorescence polarisation) ( (human and chicken TOPBP1 …))
T2 chain: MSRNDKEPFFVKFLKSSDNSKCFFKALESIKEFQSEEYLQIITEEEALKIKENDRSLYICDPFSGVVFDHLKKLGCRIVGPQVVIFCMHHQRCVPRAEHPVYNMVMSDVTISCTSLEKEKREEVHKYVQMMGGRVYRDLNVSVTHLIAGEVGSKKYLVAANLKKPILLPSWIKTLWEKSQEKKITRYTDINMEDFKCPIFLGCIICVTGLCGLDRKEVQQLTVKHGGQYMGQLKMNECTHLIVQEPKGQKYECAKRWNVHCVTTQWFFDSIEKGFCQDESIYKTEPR

[2] = molecular target: T3, TOPBP1-BRCT0,1,2 K250E (BRCT2 phosphate-binding site mutant) ( (human and chicken TOPBP1 …))
T3 chain: T2 chain with K250E

[3] = molecular target: T4, Rad4-BRCT1,2 segment, wild type (recombinant, fluorescence polarisation) (S. pombe, UniProt P32372 1-186)
T4 chain: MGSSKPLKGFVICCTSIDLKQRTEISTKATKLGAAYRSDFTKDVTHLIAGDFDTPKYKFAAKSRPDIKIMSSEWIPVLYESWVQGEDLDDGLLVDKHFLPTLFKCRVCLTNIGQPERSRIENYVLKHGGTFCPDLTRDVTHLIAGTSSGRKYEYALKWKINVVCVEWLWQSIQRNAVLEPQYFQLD

[4] = molecular target: T2, TOPBP1-BRCT0,1,2 segment, wild type …
S. pombe Nbs1 = molecular target: T5, S. pombe Nbs1 (S. pombe, UniProt O43070 1-613)
T5 chain: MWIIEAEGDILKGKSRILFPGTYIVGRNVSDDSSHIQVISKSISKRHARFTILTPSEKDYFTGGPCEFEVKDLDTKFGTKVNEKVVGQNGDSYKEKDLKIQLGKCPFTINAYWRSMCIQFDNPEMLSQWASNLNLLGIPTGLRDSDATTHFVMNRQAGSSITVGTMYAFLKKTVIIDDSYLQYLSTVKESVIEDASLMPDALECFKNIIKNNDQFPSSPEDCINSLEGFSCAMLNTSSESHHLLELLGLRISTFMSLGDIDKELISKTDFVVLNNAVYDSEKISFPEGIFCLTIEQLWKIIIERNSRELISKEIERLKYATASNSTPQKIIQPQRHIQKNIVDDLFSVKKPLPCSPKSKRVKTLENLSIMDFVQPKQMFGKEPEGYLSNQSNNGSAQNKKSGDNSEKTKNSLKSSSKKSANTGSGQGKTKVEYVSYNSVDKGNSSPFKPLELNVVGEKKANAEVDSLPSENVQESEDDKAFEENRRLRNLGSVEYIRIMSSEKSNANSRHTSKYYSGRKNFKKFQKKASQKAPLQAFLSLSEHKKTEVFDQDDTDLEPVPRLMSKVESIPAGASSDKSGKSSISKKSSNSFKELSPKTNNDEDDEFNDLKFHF

TOPBP1-BRCT7,8 = molecular target: T6, TOPBP1-BRCT7,8 ( (human and chicken TOPBP1 …))
T6 chain: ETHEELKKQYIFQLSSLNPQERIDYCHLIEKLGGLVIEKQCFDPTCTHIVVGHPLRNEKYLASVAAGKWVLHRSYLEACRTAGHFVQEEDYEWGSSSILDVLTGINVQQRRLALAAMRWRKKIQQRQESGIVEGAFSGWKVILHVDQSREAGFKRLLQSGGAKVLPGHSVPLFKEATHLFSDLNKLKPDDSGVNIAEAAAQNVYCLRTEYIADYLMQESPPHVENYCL

## fluorescein-GYGDTDFVPP[pS]PEEIISA (also: phosphoserine at 304 (S11 or S17)) [BLM pS304 fluorescein-labelled phosphopeptide]
TOPBP1-BRCT4,5 segment
  Kd: 3460 nM

## fluorescein-GYGGPVLVKD[pT]PEDKYGI [RHNO1 pT202 fluorescein-labelled phosphopeptide]
[1]
  Kd: < 200 nM
[2]
  Kd: < 200 nM

## fluorescein-GYGGVMTVPN[pT]PQKPNLQ (also: phosphothreonine at 113 (T7 or T11)) [Mdb1 pT113 fluorescein-labelled phosphopeptide]
[3]
  Kd: 1310 nM

## fluorescein-GYGLTKSVAE[pT]PVHKQIS (also: phosphothreonine at 969 (T5 or T11)) [Treslin pT969 fluorescein-labelled phosphopeptide]
[4]
  Kd: 940 nM

## fluorescein-GYGDIGVVEE[pS]PEKGDEI [Treslin pS1001 fluorescein-labelled phosphopeptide]
[4]
  Kd: 600 nM

## fluorescein-GYGVEGDHS[pS]D[pT]EEEVVS [Mdb1 pS216, pT218 fluorescein-labelled phosphopeptide (SDT site)]
S. pombe Nbs1
  Kd: 820 nM

## fluorescein-GYGEDESIYF[pT]PELYDPE [FANCJ pT1133 fluorescein-labelled phosphopeptide]
TOPBP1-BRCT7,8
  Kd: 140 nM
